Measured values as given in US20190201542A1 (AbbVie / Abbott, published 2019).
Residue numbers refer to the chain shown, from its start.

Biological target: T1, human DLL3 (human, UniProt Q9NYJ7 27-492, limits assumed)
T1 construct: also called hDLL3; DLL3 protein
T1 sequence: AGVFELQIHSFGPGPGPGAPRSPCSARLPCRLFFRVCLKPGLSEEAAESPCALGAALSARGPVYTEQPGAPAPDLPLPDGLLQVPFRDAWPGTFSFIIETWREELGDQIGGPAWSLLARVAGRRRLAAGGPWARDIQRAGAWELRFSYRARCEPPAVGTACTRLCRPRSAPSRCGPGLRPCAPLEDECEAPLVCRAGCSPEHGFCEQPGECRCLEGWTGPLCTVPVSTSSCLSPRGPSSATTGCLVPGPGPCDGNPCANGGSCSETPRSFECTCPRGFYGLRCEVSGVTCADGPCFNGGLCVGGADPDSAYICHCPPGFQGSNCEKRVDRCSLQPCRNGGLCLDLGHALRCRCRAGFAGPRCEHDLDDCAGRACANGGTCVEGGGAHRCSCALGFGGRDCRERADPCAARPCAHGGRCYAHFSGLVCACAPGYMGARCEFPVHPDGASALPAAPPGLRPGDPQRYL
Assay: screen on immobilized hDLL3 or h293-hDLL3 cells
Procedure, shortened: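 After 10 days in culture, supernatants of single-cell hybridomas from human DLL3-immunized mice were tested on cells and by solid-phase ELISA. A flow-cytometry signal above the control level counted as binding. The ELISA used DLL3-His coated at 0.5 μg/ml, HRP anti-mouse IgG and TMB, with reading at OD 450.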

B1: SC16.101 (antibody, V domains shown)
VL: QIVLTQSPAIMSASLGERVTMTCTASSSVSSSYLHWYQQKPGSSPKLWIYSTSNLASGVPARFSGSESGTSYSLTISNMEAEDAATYYCHQYHRSPFTFGSGTKLEIK
V domain: QVTLKESGPGILQPSQTLSLTCSFSGFSLSTSGMGVGWIRQPSGKGLEWLAHIWWDDVKRYNPALKSRLTISKDASSSQVFLKIASVDTAETATYYCAHILDRAYYFDYWGQGTTLTVTS
notes: murine mAb
binding result: binds

B2: SC16.10 (antibody, V domains shown)
VH: B1 V domain with P14S, A64V, A75T, E91D, H99R, I100L, L101V, R103D, A104L, T119S
VL: B1 VL with A61T, E67G, N78S
notes: murine mAb
binding result: binds

B3: SC16.118 (antibody, V domains shown)
VH: EVQLQQSGPDLVKPGASVKISCKASGYSFTGYYMHWVKQSHGKSLEWIGRVNPNNGGTSYNQKFKGKAILTADKSSSTAYMELRSLTSEDSAVYYCARGSYDYAEGWGQGTLVTVSA
VL: DIVLTQSPASLAVSLGQRATISCKASQSVDYDGDSYLTWYQQKPGQPPKLLIYAASNLESGIPARFSGSGSGTDFTLNIHPVEEEDAATYYCQQSNEDPYTFGGGTKLEIK
notes: murine mAb
binding result: binds

B4: SC16.104 (antibody, V domains shown)
VH: QVQLKESGPDLVQPSQTLSLTCTVSGFSLTFYGVHWVRQPPGKGLEWVGTMGWDDKKYYNSALKSRLSISRDTSKNQVFLKLSSLQTEDTAMYYCTRGGTGFDYWGQGTTLTVSS
VL: QIVLSQSPAILSASPGEKVTMTCRASSSVSYIHWYRQKPGSSPKPWIYATSNLASGVPARFSGSGSGTSYSLTISRVEAEDAATYYCQQWSSNPPTFGAGTKLELK
notes: murine mAb
binding result: binds

B5: SC16.114 (antibody, V domains shown)
VH: EVQLQQSGAELVKPGASVKLSCTASGFNIKDTYIHWVKQRPEQGLEWIGRIDPANGNTKYDPKFQGKATITPDTSSNTAYLQLSSLTSEDTAVYYCARSWRNYGSSFWYFDVWGAGTTVTVSS
VL: B4 VL with I32M, R36Q, P95Y, A99G, L105I
notes: murine mAb
binding result: binds

B6: SC16.110 (antibody, V domains shown)
VH: EVQLQQSGPGLVRTGASVKISCKASGYSFTGYYMHWVKQSHGKSLEWIGYISCYNGATTYNQNFKGKATFIVDTSSSTAYMQFNSLTSEDSAVYYCARSDGGHAMDYWGQGTSVTVSS
VL: NIVMTQTPKFLLVSAGDRVTITCKASQSVSNDVAWYQQKPGQSPKLLIYYASNRYTGVPDRFTGSGYGTDFTFTISTVQAEDLAVYFCQQDYSSPPTFGGGTKLEIK
notes: murine mAb
binding result: binds

B7: SC16.105 (antibody, V domains shown)
VH: QVQLQQPGAELVKPGASVKLSCKASGYTFTSYWMHWVKQRPGQGLEWIGVINPSNGRTNYNEKFKSKATLTVDKSSSTAYMQLSSLTSEDSAVYYCARRRELGTLYAMDYWGQGTSVTVSS
VL: DIVMTQSHKFMSTSVGDRVSITCKASQDVGTAVAWYQQKPGQSPKLLIYWASIRHTGVPDRFTGSGSGTDFTLTISNVQSEDLADYFCQQYSSYPLTFGAGTKLELK
notes: murine mAb
binding result: binds

B8: SC16.111 (antibody, V domains shown)
VH: EVQLQQSGPELEKPGASVKISCKASGYSFTGYNMNWVKQSNGKSLEWIGNIDPYYGGSSYKQKFEGKATLTVDKSSSTAYMQLKSLTSEDSAVYYCARGGSNFFDYWGQGTTLTVSS
VL: DIQMTQSPASLAASVGETVTITCRASENIYYSLAWYQQKQGKSPQLLIYNANSLEDGVPSRFSGSGSGTQYSMKINSMQPEDTATYFCKQTYDVPLTFGAGTKLELK
notes: murine mAb
binding result: binds

B9: SC16.109 (antibody, V domains shown)
VL: QIVLTQSPAIMSASPGEKVTMTCSASSSVSYMYWYQQKPGSSPRLLIYDTSNLASGVPVRFSGSGSGTSFSLTISRMEAEDTATYYCQEWSGNPLTFGDGTKLELK
V domain: QIQLVQSGPELKKPGETVKISCKASGYTFTNYGMNWVKQAPGKGLKWMGWINTYTGEPAYADDFKGRFAFSLETSASAAYLQINNLKNEDTATFFCANMRPTRGFAYWGQGTLGTVSA
notes: murine mAb
binding result: binds

B10: SC16.103 (antibody, V domains shown)
VH: QVTLKESGPGILKPSQTLSLTCSFSGFSLSTSGMGIGWIRQPSGKGLEWLAHIWWDDDKYYNPSLKSQLTISKDSSRNQVFLKITSVDTADTATYYCARRGTAYYFDYWGQGTTLTVSS
VL: DIVLTQSPASLAVSLGQRATISCRASKSVSTSGYSYMHWYQQKPGQPPKLLIYLASNLESGVPARFSGSGSGTDFTLNIHPVEEEDAATYYCQHSRELPLTFGAGTKLELK
notes: murine mAb
binding result: binds

B11: SC16.116 (antibody, V domains shown)
VH: QVQLKQSGPGRVQPSQSLSITCTVSGFSLTSNGVHWVRQSPGKGLEWLGVLWSGGSTDYNAAFISRLSISKDNYKSQVFFKMNSLQANDTAIYYCARNNNRYGAMDYWGQGTSVTVSS
VL: DIVMTQSPSSLTVTAGEKVTMSCTSSQSLLTSGNQKNYLTWYQQKPGQPPKLLIYWASTRESGVPDRFTGSGSGTDFTLTISSLQAEDLAVYYCQNDYSLTFGAGTKLELK
notes: murine mAb
binding result: binds

B12: SC16.113 (antibody, V domains shown)
VH: DVKLVESGGGLVKPGGSLKLSCAASGFTFSSYTMSWVRQTPEKRLEWVATISSGGSYPYYPDSVKGRFTISRDNAKNTLYLQMSSLKSEDTAMYYCTRDVYDGYSYWGQGTTLTVSS
VL: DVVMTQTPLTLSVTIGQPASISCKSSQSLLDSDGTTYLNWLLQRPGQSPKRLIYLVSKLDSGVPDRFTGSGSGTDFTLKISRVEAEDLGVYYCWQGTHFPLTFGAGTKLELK
notes: murine mAb
binding result: binds

B13: SC16.115 (antibody, V domains shown)
VH: B12 VH
VL: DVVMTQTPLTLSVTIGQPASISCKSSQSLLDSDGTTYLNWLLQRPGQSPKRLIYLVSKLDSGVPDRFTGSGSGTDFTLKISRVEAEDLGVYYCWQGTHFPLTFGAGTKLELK
notes: murine mAb
binding result: binds

B14: SC16.107 (antibody, V domains shown)
VH: EVQLQQSGPELVKPGASVKMSCKASGYTFTNYVMHWVKQKPGQGLEWIGYINPYNDGTKYNEKFKGKATLTSDKSSTTAYMALSSLTSEDSAVYYCAVAYYSNWGFAYWGQGTLVTVSA
VL: DIVMTQSHKFMSTSVGDRVSITCKASQDVNTAVGWYQQKPGQSPKLLIYSASYRYTGVPDRFTGSGSGTDFTFTISSVQAEDLAVYYCQQHYSSPYTFGGGTKVEIK
notes: murine mAb
binding result: binds

B15: SC16.139 (antibody, V domains shown)
VH: B14 VH
VL: B14 VL with V104L
notes: murine mAb
binding result: binds

B16: SC16.106 (antibody, V domains shown)
VH: QVQLKQSGPGLVAPSQSLFITCTVSGFSLTSYEINWVRQPPGKGLEWLGVIWTGGSTNYNSALISRLSISKDNSKSLVFLKMNSLQTDDTAIYYCVRGVYAMDYWGQGTSVTVSS
VL: DIKMTQSPSSMYASLGERVTITCKASQDINSYLSWFQQKPGKSPKTLIYRANRLVDGVPSRFSGSGSGQDYSLTISSLEYEDMGIYYCLQYDEFPFTFGSGTKLEIK
notes: murine mAb
binding result: binds

B17: SC16.117 (antibody, V domains shown)
VH: QVQLKESGPGLVAPSQSLSITCTVSGFSLTNYGVHWVRQPPGKGLEWLGVIWAGGITNYNSALMSRLSISEDNSKSQVFLKMNSLQTDDTAMYYCARNLGPYAMDYWGQGTSVTVSS
VL: DIQMNQSPSSLSASLGDTITITCHVSQNINVWLSWYQQKPGNIPKLLIQKASNLHTGVPSRFSGSGSGTGFTLTISSLQPEDIATYYCQQGQSYPFTFGSGTKLEIK
notes: murine mAb
binding result: binds
